# B1: Protein ABSCISIC ACID-… 5 (Arabidopsis thaliana (Mouse-ear cress)), Q9SJN0 (parent)
# chain: MVTRETKLTSEREVESSMAQARHNGGGGGENHPFTSLGRQSSIYSLTLDEFQHALCENGKNFGSMNMDEFLVSIWNAEENNNNQQQAAAAAGSHSVPANHNGFNNNNNNGGEGGVGVFSGGSRGNEDANNKRGIANESSLPRQGSLTLPAPLCRKTVDEVWSEIHRGGGSGNGGDSNGRSSSSNGQNNAQNGGETAARQPTFGEMTLEDFLVKAGVVREHPTNPKPNPNPNQNQNPSSVIPAAAQQQLYGVFQGTGDPSFPGQAMGVGDPSGYAKRTGGGGYQQAPPVQAGVCYGGGVGFGAGGQQMGMVGPLSPVSSDGLGHGQVDNIGGQYGVDMGGLRGRKRVVDGPVEKVVERRQRRMIKNRESAARSRARKQAYTVELEAELNQLKEENAQLKHALAELERKRKQQYFESLKSRAQPKLPKSNGRLRTLMRNPSCPL
# Variants of: B1
# Conditions: with sumo1_arath SUMO1, P55852
# Sequence of sumo1_arath SUMO1, P55852 (P55852 whole entry): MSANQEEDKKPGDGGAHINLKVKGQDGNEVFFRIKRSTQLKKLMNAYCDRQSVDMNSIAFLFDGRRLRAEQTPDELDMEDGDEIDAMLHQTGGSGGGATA
row,Variant,effect of a mutation on the interaction
1,K391R,disrupting interaction
